This passage reports binding result and No. of colonies results from US20130064790A1 (PROYECTO DE BIOMEDICINA CIMA S L, published 2013).

B1: peptide P9 (1-13; 1 Ser) (SEQ ID NO: 53) (peptide)
peptide: SHRCFHFRRHPVA
notes: Amino acids 1-13 of P9 with Cys 1 replaced by Ser

One assay deals with T1, human IL-10 (hIL-10) (human, UniProt P22301 19-178).
T1 construct: also called human recombinant protein IL-10 (R & D Systems, cat No. 217-IL/CF); hIL-10 (e-Bioscience)
T1 sequence (P22301 19-178 limits assumed): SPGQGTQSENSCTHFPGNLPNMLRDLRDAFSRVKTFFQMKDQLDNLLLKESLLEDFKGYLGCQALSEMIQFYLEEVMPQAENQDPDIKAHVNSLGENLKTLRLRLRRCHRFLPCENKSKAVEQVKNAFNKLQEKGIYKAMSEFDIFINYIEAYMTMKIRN
In words: SPR (BIAcore X), human IL-10 immobilized on CM5 chip, peptide 10 µM injected. The protocol: To perform this assay, the Biosensor BIAcore X (BIAcore, AB, Uppsala, Sweden) was used. Briefly, human recombinant protein IL-10 (R & D Systems, cat No. 217-IL/CF) was covalently immobilized on the surface of flow cell 2 (FC2) of a CM5 chip (BIAcore), as described in De Crescenzo et al. 2001 (JBC, Vol 276; 29632-29643). Flow cell 1 (FC1), on the surface of which IL-10 is not immobilized, was used as a reference flow cell. The peptide solutions (10 μM) were injected at least twice in 10 mM Hepes buffer, pH 7.4, 150 mM NaCl, 0.005% Tween 20 (Polyoxyethylene Sorbitan Monolaurate) at a flow of 30 μl/min. The binding curves were processed by means of subtracting the response in FC1 from that obtained in FC2. The response in equilibrium was compared between the test peptide and an irrelevant control peptide of the same length. The control peptide used was peptide P301 (SEQ ID NO: 54) (derived from the HIV-1 coat, gp120 (301-315): […]). Each response was multiplied by a mass correction factor: MW(PX)/MW(P), where MW(PX) is the molecular weight of the test peptide P and MW(P) is the molecular weight of the control peptide (P301).
Regarding HRCFHFRRHPVA (Amino acids 2-13 of P9) [peptide P9 (2-13) (SEQ ID NO: 49)], the binding result is given as “binds”.
As for CHRCFHFRRHPVAAF (P9 with Val 14 replaced by Ala) [peptide P9 (14 Ala) (SEQ ID NO: 52)], the binding result is listed as “binds”.
Same read-out and setting: the value for CHRCFHFRRHPVAVA (P9 with Phe 15 replaced by Ala) [peptide P9 (15 Ala) (SEQ ID NO: 51)] was “binds”.
Still for that read-out and setting: to CHRCFHFRRHPVAV (Amino acids 1-14 of P9) [peptide P9 (1-14) (SEQ ID NO: 46)] belongs “binds”; to RCFHFRRHPVAV (Amino acids 3-14 of P9) [peptide P9 (3-14) (SEQ ID NO: 50)], “binds”; to HRCFHFRRHPVAVF (Amino acids 2-15 of P9) [peptide P9 (2-15) (SEQ ID NO: 45)], “binds”.
Still for that read-out and setting: to CHRCFHFRRHPVA (Amino acids 1-13 of P9) [peptide P9 (1-13) (SEQ ID NO: 47)] belongs “binds”; to B1, “binds”; to HRCFHFRRHPVAV (Amino acids 2-14 of P9) [peptide P9 (2-14) (SEQ ID NO: 48)], “binds”.

The next assay deals with biotinylated IL-10 (Homo sapiens (Human)) (UniProt P22301). In words: phage display biopanning, 3 rounds on biotinylated IL-10 on streptavidin plates; clones sequenced.
Sequence of biotinylated IL-10 (Homo sapiens (Human)) (P22301 19-178 limits assumed, form in doubt): as the sequence (P22301 19-178 limits assumed) above
ARWMHRHHGWSDRHR [peptide P2 (SEQ ID NO: 2)] showed a No. of colonies of 29 colonies.
Regarding RKLRPHWLHFHPVAV [peptide P1 (SEQ ID NO: 1)], the No. of colonies amounted to 25 colonies.
